Data from US20110118131A1 (published 2011).
Changes are numbered by the printed parent chain. In names and notes the source's numbering stands.

Biological target: T1, IL-1β (UniProt P01584 117-269)
T1 construct: Antigen of XPA23
Assay: Biacore, Fab periplasmic extract

B1: XPA23 heavy chain G55L (Fab, V domains shown)
VH: EVQLLESGGGLVQPGGSLRLSCAASGFTFSKYFMFWVRQAPGKGLEWVSVISPSLGMTRYADSVKGRFTISRDNSKNTLYLQMNSLRAEDTAVYYCARVGYGGNSDYWGQGTLVTVSS
VL: DIQMTQSPSSVSASVGDRLTIICRASQDINRWLAWYQQTPGNAPKLLIHSATSLQSGVPSRFSGSGSGTDFTLTINSLQPEDFATYYCQQADSFPLTFGGGTKVEIK
notes: Fab, periplasmic extract; also called C5A G55L
fold difference in affinity against the original: 0.08 fold

B2: XPA23 heavy chain G103V (Fab, V domains shown)
VH: B1 VH with L55G, G103V
VL: B1 VL
notes: Fab, periplasmic extract; also called C5A G103V
fold difference in affinity against the original: 2.56 fold

B3: XPA23 heavy chain I51A (Fab, V domains shown)
VH: B1 VH with I51A, L55G
VL: B1 VL
notes: Fab, periplasmic extract; also called C5A I51A
fold difference in affinity against the original: 1.04 fold

B4: XPA23 heavy chain I51V (Fab, V domains shown)
VH: B1 VH with I51V, L55G
VL: B1 VL
notes: Fab, periplasmic extract; also called C5A I51V
fold difference in affinity against the original: 0.99 fold

B5: XPA23 heavy chain G56L (Fab, V domains shown)
VH: B1 VH with L55G, G56L
VL: B1 VL
notes: Fab, periplasmic extract; also called C5A G56L
fold difference in affinity against the original: 1.41 fold

B6: XPA23 heavy chain M57T (Fab, V domains shown)
VH: B1 VH with L55G, M57T
VL: B1 VL
notes: Fab, periplasmic extract; also called C5A M57T
fold difference in affinity against the original: 0.06 fold

B7: XPA23 heavy chain N104T (Fab, V domains shown)
VH: B1 VH with L55G, N104T
VL: B1 VL
notes: Fab, periplasmic extract; also called C5A N104T
fold difference in affinity against the original: 0.95 fold

B8: XPA23 heavy chain N104V (Fab, V domains shown)
VH: B1 VH with L55G, N104V
VL: B1 VL
notes: Fab, periplasmic extract; also called C5A N104V
fold difference in affinity against the original: 1.27 fold

B9: XPA23 heavy chain K31V (Fab, V domains shown)
VH: B1 VH with K31V, L55G
VL: B1 VL
notes: Fab, periplasmic extract; also called C5A K31V
fold difference in affinity against the original: 0.81 fold

B10: XPA23 heavy chain P53I (Fab, V domains shown)
VH: B1 VH with P53I, L55G
VL: B1 VL
notes: Fab, periplasmic extract; also called C5A P53I
fold difference in affinity against the original: 0.08 fold

B11: XPA23 heavy chain S30A (Fab, V domains shown)
VH: B1 VH with S30A, L55G
VL: B1 VL
notes: Fab, periplasmic extract; also called C5A S30A
fold difference in affinity against the original: 0.77 fold

B12: XPA23 heavy chain M57A (Fab, V domains shown)
VH: B1 VH with L55G, M57A
VL: B1 VL
notes: Fab, periplasmic extract; also called C5A M57A
fold difference in affinity against the original: 0.03 fold

B13: XPA23 heavy chain M57I (Fab, V domains shown)
VH: B1 VH with L55G, M57I
VL: B1 VL
notes: Fab, periplasmic extract; also called C5A M57I
fold difference in affinity against the original: 0.03 fold

B14: XPA23 heavy chain R59T (Fab, V domains shown)
VH: B1 VH with L55G, R59T
VL: B1 VL
notes: Fab, periplasmic extract; also called C5A R59T
fold difference in affinity against the original: 0.76 fold

B15: XPA23 heavy chain I51L (Fab, V domains shown)
VH: B1 VH with I51L, L55G
VL: B1 VL
notes: Fab, periplasmic extract; also called C5A I51L
fold difference in affinity against the original: 0.79 fold

B16: XPA23 heavy chain I51G (Fab, V domains shown)
VH: B1 VH with I51G, L55G
VL: B1 VL
notes: Fab, periplasmic extract; also called C5A I51G
fold difference in affinity against the original: 0.94 fold

B17: XPA23 heavy chain R59L (Fab, V domains shown)
VH: B1 VH with L55G, R59L
VL: B1 VL
notes: Fab, periplasmic extract; also called C5A R59L
fold difference in affinity against the original: 0.08 fold

B18: XPA23 heavy chain R59P (Fab, V domains shown)
VH: B1 VH with L55G, R59P
VL: B1 VL
notes: Fab, periplasmic extract; also called C5A R59P
fold difference in affinity against the original: 0.07 fold

B19: XPA23 heavy chain N104G (Fab, V domains shown)
VH: B1 VH with L55G, N104G
VL: B1 VL
notes: Fab, periplasmic extract; also called C5A N104G
fold difference in affinity against the original: 1.21 fold

B20: XPA23 heavy chain G56P (Fab, V domains shown)
VH: B1 VH with L55G, G56P
VL: B1 VL
notes: Fab, periplasmic extract; also called C5A G56P
fold difference in affinity against the original: 0.85 fold

B21: XPA23 heavy chain S30L (Fab, V domains shown)
VH: B1 VH with S30L, L55G
VL: B1 VL
notes: Fab, periplasmic extract; also called C5A S30L
fold difference in affinity against the original: 0.91 fold

B22: XPA23 heavy chain S52A (Fab, V domains shown)
VH: B1 VH with S52A, L55G
VL: B1 VL
notes: Fab, periplasmic extract; also called C5A S52A
fold difference in affinity against the original: 0.05 fold

B23: XPA23 heavy chain M57L (Fab, V domains shown)
VH: B1 VH with L55G, M57L
VL: B1 VL
notes: Fab, periplasmic extract; also called C5A M57L
fold difference in affinity against the original: 0.06 fold

B24: XPA23 heavy chain N104L (Fab, V domains shown)
VH: B1 VH with L55G, N104L
VL: B1 VL
notes: Fab, periplasmic extract; also called C5A N104L
fold difference in affinity against the original: 1.19 fold

B25: XPA23 heavy chain S30I (Fab, V domains shown)
VH: B1 VH with S30I, L55G
VL: B1 VL
notes: Fab, periplasmic extract; also called C5A S30I
fold difference in affinity against the original: 0.08 fold

B26: XPA23 heavy chain K31L (Fab, V domains shown)
VH: B1 VH with K31L, L55G
VL: B1 VL
notes: Fab, periplasmic extract; also called C5A K31L
fold difference in affinity against the original: 1.08 fold

B27: XPA23 heavy chain G103A (Fab, V domains shown)
VH: B1 VH with L55G, G103A
VL: B1 VL
notes: Fab, periplasmic extract; also called C5A G103A
fold difference in affinity against the original: 0.03 fold

B28: XPA23 heavy chain P53V (Fab, V domains shown)
VH: B1 VH with P53V, L55G
VL: B1 VL
notes: Fab, periplasmic extract; also called C5A P53V
fold difference in affinity against the original: 1.1 fold

B29: XPA23 heavy chain P53L (Fab, V domains shown)
VH: B1 VH with P53L, L55G
VL: B1 VL
notes: Fab, periplasmic extract; also called C5A P53L
fold difference in affinity against the original: 0.04 fold

B30: XPA23 heavy chain I51T (Fab, V domains shown)
VH: B1 VH with I51T, L55G
VL: B1 VL
notes: Fab, periplasmic extract; also called C5A I51T
fold difference in affinity against the original: 0.86 fold

B31: XPA23 heavy chain M57V (Fab, V domains shown)
VH: B1 VH with L55G, M57V
VL: B1 VL
notes: Fab, periplasmic extract; also called C5A M57V
fold difference in affinity against the original: 0.03 fold

B32: XPA23 heavy chain N104A (Fab, V domains shown)
VH: B1 VH with L55G, N104A
VL: B1 VL
notes: Fab, periplasmic extract; also called C5A N104A
fold difference in affinity against the original: 1.61 fold

B33: XPA23 heavy chain S30G (Fab, V domains shown)
VH: B1 VH with S30G, L55G
VL: B1 VL
notes: Fab, periplasmic extract; also called C5A S30G
fold difference in affinity against the original: 0.13 fold

B34: XPA23 heavy chain K31I (Fab, V domains shown)
VH: B1 VH with K31I, L55G
VL: B1 VL
notes: Fab, periplasmic extract; also called C5A K31I
fold difference in affinity against the original: 0.74 fold

B35: XPA23 heavy chain G100T (Fab, V domains shown)
VH: B1 VH with L55G, G100T
VL: B1 VL
notes: Fab, periplasmic extract; also called C5A G100T
fold difference in affinity against the original: 0.12 fold

B36: XPA23 heavy chain G56I (Fab, V domains shown)
VH: B1 VH with L55G, G56I
VL: B1 VL
notes: Fab, periplasmic extract; also called C5A G56I
fold difference in affinity against the original: 1.71 fold

B37: XPA23 heavy chain G56A (Fab, V domains shown)
VH: B1 VH with L55G, G56A
VL: B1 VL
notes: Fab, periplasmic extract; also called C5A G56A
fold difference in affinity against the original: 1.21 fold

B38: XPA23 heavy chain G56T (Fab, V domains shown)
VH: B1 VH with L55G, G56T
VL: B1 VL
notes: Fab, periplasmic extract; also called C5A G56T
fold difference in affinity against the original: 1.11 fold

B39: XPA23 heavy chain S30T (Fab, V domains shown)
VH: B1 VH with S30T, L55G
VL: B1 VL
notes: Fab, periplasmic extract; also called C5A S30T
fold difference in affinity against the original: 0.06 fold

B40: XPA23 heavy chain R59G (Fab, V domains shown)
VH: B1 VH with L55G, R59G
VL: B1 VL
notes: Fab, periplasmic extract; also called C5A R59G
fold difference in affinity against the original: 1.04 fold

B41: XPA23 heavy chain P53A (Fab, V domains shown)
VH: B1 VH with P53A, L55G
VL: B1 VL
notes: Fab, periplasmic extract; also called C5A P53A
fold difference in affinity against the original: 0.05 fold

B42: XPA23 heavy chain P53G (Fab, V domains shown)
VH: B1 VH with P53G, L55G
VL: B1 VL
notes: Fab, periplasmic extract; also called C5A P53G
fold difference in affinity against the original: 0.02 fold
